From US20240301071A1 (Alector, published 2024)
Positions count from the first letter of the chain named. Each block holds one binder with its values, some of them ahead of it.

Columns and labels:
[1] = target: human SIRPA Q281A (V5-tagged library clone on HEK-293T cells) (human, UniProt P78324 31-504); test: flow cytometry of Fab on HEK-293T cells expressing the mutant, normalised to wild-type SIRPA
Procedure: (§1) Epitope mapping of anti-SIRPA antibodies was performed using an alanine-scanning library created by shotgun mutagenesis of the human SIRPA cDNA sequence. […] Each of the residues representing the SIRPA extracellular domain (amino acids 31-374 of SEQ ID NO:1) was mutated, most to alanine, while alanine codons were mutated to serine.
(§2) The SIRPA mutant library clones, arrayed in a 384-well microplate, were transfected individually into HEK-293T cells and allowed to express for 22 hours. Antibodies were digested to generate Fabs, after which cells were incubated with Fabs diluted in 10% normal goat serum (NGS) (Sigma-Aldrich, St. Louis, MO). Prior to library screening, primary Fab concentrations were determined using an independent immunofluorescence titration curve against cells expressing wild type SIRPA to ensure that signals were within the linear range of detection. Fabs were detected using 7.5 μg/ml AlexaFluor488-conjugated secondary antibody (Jackson ImmunoResearch Laboratories, Westgrove, PA) in 10% NGS. Cells were washed twice with PBS and resuspended in Cellstripper (Cellgro, Manassas, VA) with 0.1% BSA (Sigma-Aldrich, St. Louis, MO). In some cases, higher stringency conditions were used, including increased pH, increased temperature, and increased dissociation time. Mean cellular fluorescence was detected using the Intellicyt high throughput flow cytometer (HTFC, Intellicyt, Albuquerque, NM). Fab reactivities against each mutant clone were calculated relative to wild-type SIRPA protein reactivity by subtracting the signal from mock-transfected controls, and normalizing to the signal from wild-type SIRPA transfected controls.

[2] = target: human SIRPA R282A (V5-tagged library clone on HEK-293T cells) (human, UniProt P78324 31-504); test: as above
Procedure: as §1, §2

[3] = target: human SIRPA Q284A (V5-tagged library clone on HEK-293T cells) (human, UniProt P78324 31-504); test: as above
Procedure: as §1, §2

[4] = target: human SIRPA L285A (V5-tagged library clone on HEK-293T cells) (human, UniProt P78324 31-504); test: as above
Procedure: as §1, §2

[5] = target: human SIRPA W287A (V5-tagged library clone on HEK-293T cells) (human, UniProt P78324 31-504); test: as above
Procedure: as §1, §2

[6] = target: human SIRPA R295A (V5-tagged library clone on HEK-293T cells) (human, UniProt P78324 31-504); test: as above
Procedure: as §1, §2

[7] = target: human SIRPA E297A (V5-tagged library clone on HEK-293T cells) (human, UniProt P78324 31-504); test: as above
Procedure: as §1, §2

[8] = target: human SIRPA V302A (V5-tagged library clone on HEK-293T cells) (human, UniProt P78324 31-504); test: as above
Procedure: as §1, §2

[9] = target: human SIRPA W315A (V5-tagged library clone on HEK-293T cells) (human, UniProt P78324 31-504); test: as above
Procedure: as §1, §2

[10] = target: human SIRPA G337A (V5-tagged library clone on HEK-293T cells) (human, UniProt P78324 31-504); test: as above
Procedure: as §1, §2

[11] = target: T1, human SIRPA on human macrophages (primary monocyte-derived macrophages; U937 line) (human, UniProt P78324 31-504); test: cell-based or functional assay
[12] = target: T2, human SIRPA v1 on BWZ cells (BWZ-huSIRPA) (human, UniProt P78324 31-504); test: flow cytometry titration on BWZ cells overexpressing huSIRPA, 4 C
T2 construct: also called BWZ cells overexpressing human SIRPA; BWZ-huSIRPA v1 cells
Procedure: Receptor bound antibodies were detected by staining cells with anti-mouse IgG Fc APC or anti-human IgG PE secondary antibody. Serial dilutions of the monoclonal antibodies were added to 10⁵ BWZ cells overexpressing huSIRPA (BWZ-huSIRPA) and allowed to achieve binding equilibrium at 4° C. After addition of fluorescently labeled secondary antibody and brief washing steps, mean fluorescent intensity (MFI) values as a function of titrated antibody concentration was recorded via FACS analysis. Curves were fit using nonlinear regression analysis with Graphpad Prism 6 software.

[13] = target: T2, human SIRPA v1 on BWZ cells …; test: flow cytometry competition on BWZ-huSIRPA v1 cells, competitor: fluorophore-labelled reference m3F9
Excerpt: IC50 values provide another comparison of relative affinity.

[14] = target: T3, histidine-tagged human SIRPA (Sino Biological) (human, UniProt P78324 31-370); test: BLI (Octet RED96), antibody captured on anti-human IgG Fc sensor, His-tagged SIRPA in solution, 1:1 model
T3 construct: bought, soluble; also called histidine-tagged huSIRPA isoform 1; soluble SIRPA antigen; not shown: histidine tag
Procedure: Affinity measurements for the anti-SIRPA antibodies were performed as follows. Bio-layer interferometry (BLI) data were collected on a Pall ForteBio Octet RED96 instrument. Data analysis was performed using ForteBio Data Analysis Software, version 9.0. Standard kinetic buffer (PBS, 0.100 BSA, 0.02% Tween-20, pH 7.2) was used for the assay and for preparing reagents. […] Varying concentrations (0-200 nM) of histidine-tagged human SIRPA (Sino Biological, Beijing, China) were then bound to the captured anti-SIRPA surface (300 s association time, 600 s dissociation time). The resulting BLI signal was obtained as the difference in response from the reference (2.5 μg/mL IgG+0 nM SIRPA) sensor. […] Multi-concentration kinetic analysis was performed using a 1:1 interaction model to extract association and dissociation rate constants (ka and kd, respectively) for each antibody. Binding affinity constants (KD) were calculated from the ratio kd/ka.
Best-fit traces from the resulting sensorgrams were analyzed to calculate association rate, dissociation rate, and affinity values.

[15] = target: T1, human SIRPA on human macrophages …; test: cell-based or functional assay; remark: listed apart in the source
[16] = target: T1, human SIRPA on human macrophages …; test: cell-based or functional assay; remark: listed apart in the source
[17] = target: T4, soluble human FcgR3A F158 (human, UniProt P08637 17-208); test: BLI (Octet RED96), antibody captured by anti-human Fab-CH1, soluble human FcR
T4 construct: also called CD16A F158
Procedure: (§3) FcR affinity measurements for anti-SIRPA antibody Fc variants were obtained using bio-layer interferometry (BLI) on a Pall ForteBio Octet RED96 instrument. […] Single cycle kinetics were performed with 100 nM of soluble human FcRs flowed over captured antibody to record traces (300 s association time, 300 s dissociation time). Data analysis was performed using ForteBio Data Analysis Software, version 9.0. Standard kinetic buffer (PBS, 0.1% BSA, 0.02% Tween-20, pH 7.2) was used for the assay and for preparing reagents.

[18] = target: T5, soluble human FcgR3A V158 (human, UniProt P08637 17-208); test: as above
T5 construct: also called CD16A V158
Procedure: as §3

[19] = target: T6, soluble human FcgR1 (human, UniProt P12314 16-288); test: BLI (Octet RED96), antibody captured by anti-human Fab-CH1, 100 nM soluble human FcR
T6 construct: also called FcγRI; CD64
Procedure: as §3

[20] = target: T7, soluble human FcgR2A H131 (human, UniProt P12318 36-218); test: as above
T7 construct: also called CD32A-H131
T7 sequence (looked up): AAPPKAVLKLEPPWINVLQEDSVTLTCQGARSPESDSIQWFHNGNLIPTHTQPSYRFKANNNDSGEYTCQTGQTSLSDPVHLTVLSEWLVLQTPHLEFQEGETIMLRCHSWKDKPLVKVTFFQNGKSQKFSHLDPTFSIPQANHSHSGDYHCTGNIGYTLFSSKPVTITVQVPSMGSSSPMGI
Procedure: as §3

[21] = target: T8, soluble human FcgR2A R131 (human, UniProt P12318 36-218); test: as above
T8 construct: also called CD32A-R131
T8 sequence (looked up): T7 sequence (looked up) with H132R
Procedure: as §3

[22] = target: T9, soluble human FcgR2B (human, UniProt P31994 46-217); test: as above
T9 construct: also called CD32B
T9 sequence (looked up): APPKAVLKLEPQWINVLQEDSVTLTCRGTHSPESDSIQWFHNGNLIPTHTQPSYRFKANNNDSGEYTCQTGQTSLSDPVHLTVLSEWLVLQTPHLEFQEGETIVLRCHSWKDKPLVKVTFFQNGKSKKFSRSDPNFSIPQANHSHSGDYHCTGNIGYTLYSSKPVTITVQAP
Procedure: as §3

[23] = target: T1, human SIRPA on human macrophages …; test: cell-based or functional assay; remark: listed apart in the source

T3 sequence (P78324 31-370 limits assumed): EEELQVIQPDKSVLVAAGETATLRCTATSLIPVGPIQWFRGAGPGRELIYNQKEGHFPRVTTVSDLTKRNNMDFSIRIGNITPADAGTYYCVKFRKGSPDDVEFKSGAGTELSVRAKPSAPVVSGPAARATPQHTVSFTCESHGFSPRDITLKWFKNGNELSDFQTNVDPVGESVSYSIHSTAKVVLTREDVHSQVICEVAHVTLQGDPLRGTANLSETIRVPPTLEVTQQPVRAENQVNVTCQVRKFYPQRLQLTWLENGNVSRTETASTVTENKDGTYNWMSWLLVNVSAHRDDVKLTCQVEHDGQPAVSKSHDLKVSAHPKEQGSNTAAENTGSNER
T1 sequence (P78324 31-370): as the sequence (P78324 31-370 limits assumed) above
T2 sequence (P78324 31-504): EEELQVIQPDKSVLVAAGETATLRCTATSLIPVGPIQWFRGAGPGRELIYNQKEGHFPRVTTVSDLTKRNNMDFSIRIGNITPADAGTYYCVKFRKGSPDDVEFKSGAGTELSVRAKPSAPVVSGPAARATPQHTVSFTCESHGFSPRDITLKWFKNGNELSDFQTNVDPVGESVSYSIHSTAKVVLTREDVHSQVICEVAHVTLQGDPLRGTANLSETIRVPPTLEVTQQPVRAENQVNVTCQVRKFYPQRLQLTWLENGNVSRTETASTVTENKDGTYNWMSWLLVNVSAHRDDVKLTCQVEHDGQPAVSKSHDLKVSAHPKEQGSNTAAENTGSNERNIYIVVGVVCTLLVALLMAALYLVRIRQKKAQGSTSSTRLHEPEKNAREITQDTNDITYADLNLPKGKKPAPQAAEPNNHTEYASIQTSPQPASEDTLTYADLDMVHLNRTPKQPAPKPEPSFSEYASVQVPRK
human SIRPA Q281A (V5-tagged library clone on HEK-293T cells), sequence (P78324 31-504 Q281A): as the sequence (P78324 31-504) above, with Q251A counted along it
human SIRPA L285A (V5-tagged library clone on HEK-293T cells), sequence (P78324 31-504 L285A): as the sequence (P78324 31-504) above, with L255A counted along it
human SIRPA G337A (V5-tagged library clone on HEK-293T cells), sequence (P78324 31-504 G337A): as the sequence (P78324 31-504) above, with G307A counted along it
human SIRPA E297A (V5-tagged library clone on HEK-293T cells), sequence (P78324 31-504 E297A): as the sequence (P78324 31-504) above, with E267A counted along it
human SIRPA W287A (V5-tagged library clone on HEK-293T cells), sequence (P78324 31-504 W287A): as the sequence (P78324 31-504) above, with W257A counted along it
T6 sequence (P12314 16-288 limits assumed): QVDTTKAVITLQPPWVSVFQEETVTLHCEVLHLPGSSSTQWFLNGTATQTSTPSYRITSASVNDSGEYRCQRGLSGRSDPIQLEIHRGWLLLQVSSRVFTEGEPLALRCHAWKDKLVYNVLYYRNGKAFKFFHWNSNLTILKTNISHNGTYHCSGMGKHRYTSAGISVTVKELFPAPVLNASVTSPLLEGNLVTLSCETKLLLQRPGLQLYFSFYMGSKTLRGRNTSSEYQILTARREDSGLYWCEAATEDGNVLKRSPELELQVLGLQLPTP
human SIRPA R282A (V5-tagged library clone on HEK-293T cells), sequence (P78324 31-504 R282A): as the sequence (P78324 31-504) above, with R252A counted along it
human SIRPA V302A (V5-tagged library clone on HEK-293T cells), sequence (P78324 31-504 V302A): as the sequence (P78324 31-504) above, with V272A counted along it
T4 sequence (P08637 17-208 limits assumed): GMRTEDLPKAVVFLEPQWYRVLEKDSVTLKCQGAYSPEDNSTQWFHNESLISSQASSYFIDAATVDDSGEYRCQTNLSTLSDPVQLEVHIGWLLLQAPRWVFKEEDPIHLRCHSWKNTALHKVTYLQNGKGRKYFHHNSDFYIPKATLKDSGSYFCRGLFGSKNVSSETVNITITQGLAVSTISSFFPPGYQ
human SIRPA Q284A (V5-tagged library clone on HEK-293T cells), sequence (P78324 31-504 Q284A): as the sequence (P78324 31-504) above, with Q254A counted along it
human SIRPA W315A (V5-tagged library clone on HEK-293T cells), sequence (P78324 31-504 W315A): as the sequence (P78324 31-504) above, with W285A counted along it
T5 sequence (P08637 17-208 F176V limits assumed): as the sequence (P08637 17-208 limits assumed) above, with F160V counted along it
human SIRPA R295A (V5-tagged library clone on HEK-293T cells), sequence (P78324 31-504 R295A): as the sequence (P78324 31-504) above, with R265A counted along it

Binding Reactivity (% WT) [1]: 14.1 % WT | Binding Reactivity (% WT) [2]: 4.7 % WT | Binding Reactivity (% WT) [3]: 6.5 % WT | Binding Reactivity (% WT) [4]: 17.9 % WT | Binding Reactivity (% WT) [5]: 2.4 % WT | Binding Reactivity (% WT) [6]: 1.8 % WT | Binding Reactivity (% WT) [7]: 5.3 % WT | Binding Reactivity (% WT) [8]: 4.9 % WT | Binding Reactivity (% WT) [9]: 19 % WT | Binding Reactivity (% WT) [10]: 36.3 % WT
B1: 9C2 Fab (Fab, V domains shown)
VH: EFQLQQSGAELVKPGASVKISCKASGYSLTGYNMNWVKQSRGKSLEWIGNINPHYGSSTYNQNFKDKATLTVDKSSSAAYMQFNSLTSEDSAVYYCAREGYDGVFDYWGQGTTLTVSS
VL: QIVLSQSPAILSASPGEKVTMTCRASSSVSYMHWYQQKPGSSPKPWIYVTSNLASGVPTRFSGSGSGTSYSLTISRVEAEDAATYYCQQWSSNPRTFGGGTKLEIK

IC50 (read off the curve), SIRPA downregulation on primary human macrophages, Dnr 409 [11]: ~0.2 nM | EC50 [12]: 1.06 nM | IC50 [13]: 3.3 nM | Kd [14]: 19 nM | koff [14]: 0.002 s⁻¹ | kon [14]: 110000 M⁻¹ s⁻¹
B2: mAb 14.70.1 (antibody, human IgG4, V domains shown)
VH: EVQLLESGGGLVQPGGSLRLSCAASGFTFSSYAMSWVRQAPGKGLEWVSTISDYGGSYTYYADSVKGRFTISRDNSKNTLYLQMNSLRAEDTAVYYCAKPPYDDYYGGFAYWGQGTLVTVSS
VL: DIQMTQSPSSLSASVGDRVTITCRASKSVSSSGYSYMHWYQQKPGKAPKLLIYLASNLESGVPSRFSGSGSGTDFTLTISSLQPEDFATYYCQHNRELPCTFGQGTKLEIK
notes: also called h3F9 H1/L1; h3F9 IgG4

Continued, binder first:

B3: 3F9-22 hIgG1 NSLF (antibody)
heavy: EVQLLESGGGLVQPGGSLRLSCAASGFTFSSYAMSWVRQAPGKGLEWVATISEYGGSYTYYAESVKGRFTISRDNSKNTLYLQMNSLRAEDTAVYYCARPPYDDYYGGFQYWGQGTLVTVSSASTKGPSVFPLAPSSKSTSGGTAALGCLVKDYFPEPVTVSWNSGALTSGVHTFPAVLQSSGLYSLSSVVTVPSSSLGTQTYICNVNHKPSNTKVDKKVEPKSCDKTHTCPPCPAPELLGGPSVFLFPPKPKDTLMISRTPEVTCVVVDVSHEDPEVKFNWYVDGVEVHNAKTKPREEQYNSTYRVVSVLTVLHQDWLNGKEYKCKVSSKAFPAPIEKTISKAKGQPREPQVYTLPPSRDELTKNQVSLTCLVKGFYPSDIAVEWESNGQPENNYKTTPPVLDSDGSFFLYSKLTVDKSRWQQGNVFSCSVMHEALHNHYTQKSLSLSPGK
light: DIQLTQSPSSLSASVGDRVTITCRASKSVSSGGYSYMHWYQQKPGKAPKLLIYLASNLESGVPSRFSGSGSGTDFTLTISSVQPEDFATYYCQHNRELPVTFGQGTKLEIKRTVAAPSVFIFPPSDEQLKSGTASVVCLLNNFYPREAKVQWKVDNALQSGNSQESVTEQDSKDSTYSLSSTLTLSKADYEKHKVYACEVTHQGLSSPVTKSFNRGEC
notes: also called 3F9-22 NSLF; 3F9-22NSLF
IC50 (nM), SIRPA downregulation on human monocyte-derived macrophages [15]: 0.0451 nM | Max % DR, SIRPA, human monocyte-derived macrophages [15]: 74.6% | EC50 (nM), phagocytosis of A375 cells by primary human macrophages [16]: 0.458 nM | Max, fold increase in phagocytosis over baseline activity [16]: 1.77 fold | binding result [17]: no binding (tested: 100 nM) | binding result [18]: no binding (tested: 100 nM) | binding result [19]: binds | binding result [20]: binds | binding result [21]: binds | binding result [22]: binds

B4: 3F9-22 SELF (antibody, human IgG1, kappa)
heavy chain: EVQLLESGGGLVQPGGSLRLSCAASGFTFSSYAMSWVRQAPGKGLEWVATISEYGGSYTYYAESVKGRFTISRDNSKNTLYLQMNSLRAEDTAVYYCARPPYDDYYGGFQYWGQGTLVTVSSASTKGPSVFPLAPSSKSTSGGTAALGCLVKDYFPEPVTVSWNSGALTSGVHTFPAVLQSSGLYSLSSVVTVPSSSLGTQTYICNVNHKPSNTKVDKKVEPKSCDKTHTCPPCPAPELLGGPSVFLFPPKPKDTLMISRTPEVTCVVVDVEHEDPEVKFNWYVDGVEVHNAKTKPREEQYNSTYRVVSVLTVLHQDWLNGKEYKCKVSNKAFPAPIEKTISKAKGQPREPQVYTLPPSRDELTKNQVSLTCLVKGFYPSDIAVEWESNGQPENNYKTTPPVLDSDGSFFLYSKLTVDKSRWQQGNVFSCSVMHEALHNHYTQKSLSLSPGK
light chain: B3 light
IC50 (read off the curve), SIRPA downregulation on primary human macrophages, Dnr. 517 [23]: ~0.1 nM
